What is called stoichiometry N is a count of units in the complex or per binding partner.

Assay [1] has as its target recombinant purified multimeric HIV-1 CA tubes assembled from cross-linked CA hexamers (CA A14C/E45C) (HIV-1 (NL4-3)).
Assay [2] shares this target. Briefly: co-sedimentation; 20 μL CA tubes (~1.4 μM) mixed with 80 μL clarified HEK293T whole-cell lysate (1.5 mg/mL) in CA binding buffer (10 mM Tris pH 7.4, 1.5 mM MgCl2, 10 mM KCl), 1 h at room temperature; 21,000 x g for 8 min at 4°C; NUP153C detected with anti-HA, signals normalized to input.
Assay [3] shares this target. Briefly: cross-linking; disulfide cross-linking of purified CA A14C/E45C by dialysis in assembly buffer (25 mM Tris-Cl pH 8.0, 1 M NaCl) with falling β-ME at 4°C; hexamers assessed by SDS-PAGE, tubes by transmission electron microscopy.

In the case of “TRIM-NUP153C(human)-HA, wild type (from UniProt Q0PF16 1-304; P49790 896-1475)”, the HIV-GFP transduction of HEK293T cells expressing TRIM-NUP153C, GFP-positive cells relative to the no TRIM control (flow cytometry) in assay [1] was 53%. In addition, in assay [2], the percent detected in the pellet fraction with CA tubes was 46%.

For the substance “TRIM-NUP153C-HA F1415M (from UniProt Q0PF16 1-304; P49790 896-1475)”, the HIV-GFP transduction of HEK293T cells expressing TRIM-NUP153C, relative percentage of GFP-positive cells in assay [1] amounted to 52%.

For “TRIM-NUP153C-HA F1417Y (from UniProt Q0PF16 1-304; P49790 896-1475)”, in assay [1], the HIV-GFP transduction of HEK293T cells expressing TRIM-NUP153C, relative percentage of GFP-positive cells stood at 77.9%.

On to “TRIM-NUP153C-HA G1413M (from UniProt Q0PF16 1-304; P49790 896-1475)”, for which the HIV-GFP transduction of HEK293T cells expressing TRIM-NUP153C, relative percentage of GFP-positive cells in assay [1] stood at 61.7%.

Consider “TRIM-NUP153C-HA G1413W (from UniProt Q0PF16 1-304; P49790 896-1475)”, for which, in assay [2], the percent bound to CA tubes (cosedimented) is 59%.

As for “TRIM-NUP153C-HA G1418A (from UniProt Q0PF16 1-304; P49790 896-1475)”, the HIV-GFP transduction of HEK293T cells expressing TRIM-NUP153C, relative percentage of GFP-positive cells in assay [1] turned out to be 79%.

For the substance “TRIM-NUP153C-HA P1411M (from UniProt Q0PF16 1-304; P49790 896-1475)”, the HIV-GFP transduction of HEK293T cells expressing TRIM-NUP153C, relative percentage of GFP-positive cells; restriction significantly different from wild type in assay [1] was found to be 67.9%.

Regarding “TRIM-NUP153C-HA S1412M (from UniProt Q0PF16 1-304; P49790 896-1475)”, the HIV-GFP transduction of HEK293T cells expressing TRIM-NUP153C, relative percentage of GFP-positive cells in assay [1] was found to be 64.1%.

On to “TRIM-NUP153C-HA S1412P (from UniProt Q0PF16 1-304; P49790 896-1475)”, for which, in assay [2], the percent bound to CA tubes (cosedimented) came to 63%.

Take “TRIM-NUP153C-HA T1416M (from UniProt Q0PF16 1-304; P49790 896-1475)”: the HIV-GFP transduction of HEK293T cells expressing TRIM-NUP153C, relative percentage of GFP-positive cells in assay [1] came out at 86.8%.

With “TRIM-NUP153C-HA V1414I (from UniProt Q0PF16 1-304; P49790 896-1475)”, in assay [1], the HIV-GFP transduction of HEK293T cells expressing TRIM-NUP153C, relative percentage of GFP-positive cells amounted to 63.9%.

For the substance “recombinant purified multimeric HIV-1 CA tubes assembled from cross-linked CA hexamers (CA A14C/E45C) (natural protein)”, in assay [3], the stoichiometry N is 6.

The values above are taken from article PMC9599535.
